Experimental data as given in US9555076B2, “Neuregulin based methods and compositions for treating cardiovascular diseases” (Zensun (Shanghai) Science & Technology, Co., Ltd., priority 2002, dated 2017).
Marks after values point to notes of the source that are not given here.

Test system: acute myocardial injury caused by viral (Coxsackie B3) infection in mice
Assay: Survival of mice infected with Coxsackie B3 virus
Type: in vivo, BALB/C mice
Conditions: mice n = 20
Description: 0.2 ml of 100×TCID50 CVB3 provided by Zhong Shan Hospital affiliated to Fudan University was injected intra-abdominally and established myocarditis model. Within the following week, the mouse manifested pilo-erection, depilation, emaciation, dullness and death, about half of the tested animals died at the 8th day.
Intravenous injection of the testing drug into the tail vein was carried out the same day of intra-abdominal viral infection in mice, the injection was performed for consecutive 5 days, animal survival rate was monitored, after completion of the experiment, echocardiograph, myocardial pathologic examination, serum troponin determination were carried out.
The death status of model animals in various testing drug group was monitored.
• Normal mice control group, model group and testing drug group were set up; • Normal mice control group (n=10); • Model group (n=20): Prepared buffer solution was injected; • Testing drug group (n=20): […] courses with 20 animals assigned for each group; • Placebo control group (n=20): Intra-abdominal injection of non-CVB3 freeze-thaw cellular supernatant, 0.2 ml/animal. 10.2 Dosage Set Up, Preparation of Testing Drug, Route of Drug Administration, Times of Drug Administration, Concentration and Volume of the Testing Drug • rhNRG-1β was diluted with preparation buffer solution (10 mM PB, 0.2% human serum albumin, 5% mannitol to needed concentration; • Three drug administration groups were set up, intravenous injection for consecutive 3-day, 5-day and 7-day, drug volume for each dose was 0.2 ml/animal; • Drug administration of the model group was intravenous injection into the tail vein of mice, once every day (qd), for consecutive 7 days, drug volume for each dose was 0.2 ml/animal. 7.3 Method of the Experiment 7.3.1 Set Up of Acute Viral Myocariditis Animal Model in Mice

B1: rhNRG-1 β: Recombinant human neuregulin fragment of 61 amino acid (SEQ ID NO:4), 3 disulfide bonds, expressed in E. coli (protein, listed as Homo sapiens)
chain: SHLVKCAEKEKTFCVNGGECFMVKDLSNPSRYLCKCPNEFTGDRCQNYVMASFYKAEELYQ
modifications: disulfide (positions not given here)
5 μg/kg (so in the source) iv qd × 5, 1st day, (I)
  Numbers of survival animals: 20
5 μg/kg (so in the source) iv qd × 5, 2nd day, (I)
  Numbers of survival animals: 20
5 μg/kg (so in the source) iv qd × 5, 3rd day, (I)
  Numbers of survival animals: 20
5 μg/kg (so in the source) iv qd × 5, 4th day, (I)
  Numbers of survival animals: 19
5 μg/kg (so in the source) iv qd × 5, 5th day, (I)
  Numbers of survival animals: 18
5 μg/kg (so in the source) iv qd × 5, 6th day, (I)
  Numbers of survival animals: 15
5 μg/kg (so in the source) iv qd × 5, 7th day, (I)
  Numbers of survival animals: 13
5 μg/kg (so in the source) iv qd × 5, killed, (I)
  Numbers of survival animals: 10
7.5 μg/kg iv qd × 5, 1st day, (II)
  Numbers of survival animals: 20
7.5 μg/kg iv qd × 5, 2nd day, (II)
  Numbers of survival animals: 20
7.5 μg/kg iv qd × 5, 3rd day, (II)
  Numbers of survival animals: 20
7.5 μg/kg iv qd × 5, 4th day, (II)
  Numbers of survival animals: 18
7.5 μg/kg iv qd × 5, 5th day, (II)
  Numbers of survival animals: 17
7.5 μg/kg iv qd × 5, 6th day, (II)
  Numbers of survival animals: 14
7.5 μg/kg iv qd × 5, 7th day, (II)
  Numbers of survival animals: 11
7.5 μg/kg iv qd × 5, killed, (II)
  Numbers of survival animals: 10
15 μg/kg iv qd × 5, 1st day, (I)
  Numbers of survival animals: 20
15 μg/kg iv qd × 5, 1st day, (II)
  Numbers of survival animals: 20
15 μg/kg iv qd × 5, 2nd day, (I)
  Numbers of survival animals: 20
15 μg/kg iv qd × 5, 2nd day, (II)
  Numbers of survival animals: 20
15 μg/kg iv qd × 5, 3rd day, (I)
  Numbers of survival animals: 20
15 μg/kg iv qd × 5, 3rd day, (II)
  Numbers of survival animals: 20
15 μg/kg iv qd × 5, 4th day, (I)
  Numbers of survival animals: 20
15 μg/kg iv qd × 5, 4th day, (II)
  Numbers of survival animals: 19
15 μg/kg iv qd × 5, 5th day, (I)
  Numbers of survival animals: 19
15 μg/kg iv qd × 5, 5th day, (II)
  Numbers of survival animals: 18
15 μg/kg iv qd × 5, 6th day, (I)
  Numbers of survival animals: 17
15 μg/kg iv qd × 5, 6th day, (II)
  Numbers of survival animals: 16
15 μg/kg iv qd × 5, 7th day, (I)
  Numbers of survival animals: 14
15 μg/kg iv qd × 5, 7th day, (II)
  Numbers of survival animals: 13
15 μg/kg iv qd × 5, killed, (I)
  Numbers of survival animals: 13
15 μg/kg iv qd × 5, killed, (II)
  Numbers of survival animals: 13
30 μg/kg iv qd × 3, 1st day, (I)
  Number of survival animal: 20
30 μg/kg iv qd × 3, 1st day, (II)
  Number of survival animals: 20
30 μg/kg iv qd × 3, 2nd day, (I)
  Number of survival animal: 20
30 μg/kg iv qd × 3, 2nd day, (II)
  Number of survival animals: 20
30 μg/kg iv qd × 3, 3rd day, (I)
  Number of survival animal: 20
30 μg/kg iv qd × 3, 3rd day, (II)
  Number of survival animals: 20
30 μg/kg iv qd × 3, 4th day, (I)
  Number of survival animal: 19
30 μg/kg iv qd × 3, 4th day, (II)
  Number of survival animals: 20
30 μg/kg iv qd × 3, 5th day, (I)
  Number of survival animal: 18
30 μg/kg iv qd × 3, 5th day, (II)
  Number of survival animals: 19
30 μg/kg iv qd × 3, 6th day, (I)
  Number of survival animal: 16
30 μg/kg iv qd × 3, 6th day, (II)
  Number of survival animals: 16
30 μg/kg iv qd × 3, 7th day, (I)
  Number of survival animal: 14
30 μg/kg iv qd × 3, 7th day, (II)
  Number of survival animals: 15
30 μg/kg iv qd × 3, killed, (I)
  Number of survival animal: 13
30 μg/kg iv qd × 3, killed, (II)
  Number of survival animals: 15
30 μg/kg iv qd × 5, 1st day, (I)
  Numbers of survival animals: 20
30 μg/kg iv qd × 5, 1st day, (II)
  Numbers of survival animals: 20
30 μg/kg iv qd × 5, 1st day, Example 5 (I)
  Number of survival animal: 20
30 μg/kg iv qd × 5, 1st day, Example 5 (II)
  Number of survival animals: 20
30 μg/kg iv qd × 5, 2nd day, (I)
  Numbers of survival animals: 20
30 μg/kg iv qd × 5, 2nd day, (II)
  Numbers of survival animals: 20
30 μg/kg iv qd × 5, 2nd day, Example 5 (I)
  Number of survival animal: 20
30 μg/kg iv qd × 5, 2nd day, Example 5 (II)
  Number of survival animals: 20
30 μg/kg iv qd × 5, 3rd day, (I)
  Numbers of survival animals: 20
30 μg/kg iv qd × 5, 3rd day, (II)
  Numbers of survival animals: 20
30 μg/kg iv qd × 5, 3rd day, Example 5 (I)
  Number of survival animal: 20
30 μg/kg iv qd × 5, 3rd day, Example 5 (II)
  Number of survival animals: 20
30 μg/kg iv qd × 5, 4th day, (I)
  Numbers of survival animals: 20
30 μg/kg iv qd × 5, 4th day, (II)
  Numbers of survival animals: 20
30 μg/kg iv qd × 5, 4th day, Example 5 (I)
  Number of survival animal: 20
30 μg/kg iv qd × 5, 4th day, Example 5 (II)
  Number of survival animals: 20
30 μg/kg iv qd × 5, 5th day, (I)
  Numbers of survival animals: 20
30 μg/kg iv qd × 5, 5th day, (II)
  Numbers of survival animals: 19
30 μg/kg iv qd × 5, 5th day, Example 5 (I)
  Number of survival animal: 19
30 μg/kg iv qd × 5, 5th day, Example 5 (II)
  Number of survival animals: 19
30 μg/kg iv qd × 5, 6th day, (I)
  Numbers of survival animals: 18
30 μg/kg iv qd × 5, 6th day, (II)
  Numbers of survival animals: 18
30 μg/kg iv qd × 5, 6th day, Example 5 (I)
  Number of survival animal: 19
30 μg/kg iv qd × 5, 6th day, Example 5 (II)
  Number of survival animals: 19
30 μg/kg iv qd × 5, 7th day, (I)
  Numbers of survival animals: 17
30 μg/kg iv qd × 5, 7th day, (II)
  Numbers of survival animals: 17
30 μg/kg iv qd × 5, 7th day, Example 5 (I)
  Number of survival animal: 18
30 μg/kg iv qd × 5, 7th day, Example 5 (II)
  Number of survival animals: 18
30 μg/kg iv qd × 5, killed, (I)
  Numbers of survival animals: 16*
30 μg/kg iv qd × 5, killed, (II)
  Numbers of survival animals: 17*
30 μg/kg iv qd × 5, killed, Example 5 (I)
  Number of survival animal: 17*
30 μg/kg iv qd × 5, killed, Example 5 (II)
  Number of survival animals: 18*
30 μg/kg iv qd × 7, 1st day, (I)
  Number of survival animal: 20
30 μg/kg iv qd × 7, 1st day, (II)
  Number of survival animals: 20
30 μg/kg iv qd × 7, 2nd day, (I)
  Number of survival animal: 20
30 μg/kg iv qd × 7, 2nd day, (II)
  Number of survival animals: 20
30 μg/kg iv qd × 7, 3rd day, (I)
  Number of survival animal: 20
30 μg/kg iv qd × 7, 3rd day, (II)
  Number of survival animals: 20
30 μg/kg iv qd × 7, 4th day, (I)
  Number of survival animal: 20
30 μg/kg iv qd × 7, 4th day, (II)
  Number of survival animals: 20
30 μg/kg iv qd × 7, 5th day, (I)
  Number of survival animal: 20
30 μg/kg iv qd × 7, 5th day, (II)
  Number of survival animals: 20
30 μg/kg iv qd × 7, 6th day, (I)
  Number of survival animal: 19
30 μg/kg iv qd × 7, 6th day, (II)
  Number of survival animals: 19
30 μg/kg iv qd × 7, 7th day, (I)
  Number of survival animal: 19
